Results: article doi:10.1101/2023.06.16.545308 (bioRxiv, 2023)
Read-outs that look alike come from different tables or passages of the source.

Key:
[1] = target: T1, human transporter associated with antigen processing (TAP), heterodimer of TAP1 and TAP2 (human, UniProt Q03518;Q03519); test: cryo-EM structure
[2] = target: T1, human transporter associated with …; test: cryo-EM structure; remark: listed apart in the source

T1 sequence (Q03518 whole entry, chain 1 of 2): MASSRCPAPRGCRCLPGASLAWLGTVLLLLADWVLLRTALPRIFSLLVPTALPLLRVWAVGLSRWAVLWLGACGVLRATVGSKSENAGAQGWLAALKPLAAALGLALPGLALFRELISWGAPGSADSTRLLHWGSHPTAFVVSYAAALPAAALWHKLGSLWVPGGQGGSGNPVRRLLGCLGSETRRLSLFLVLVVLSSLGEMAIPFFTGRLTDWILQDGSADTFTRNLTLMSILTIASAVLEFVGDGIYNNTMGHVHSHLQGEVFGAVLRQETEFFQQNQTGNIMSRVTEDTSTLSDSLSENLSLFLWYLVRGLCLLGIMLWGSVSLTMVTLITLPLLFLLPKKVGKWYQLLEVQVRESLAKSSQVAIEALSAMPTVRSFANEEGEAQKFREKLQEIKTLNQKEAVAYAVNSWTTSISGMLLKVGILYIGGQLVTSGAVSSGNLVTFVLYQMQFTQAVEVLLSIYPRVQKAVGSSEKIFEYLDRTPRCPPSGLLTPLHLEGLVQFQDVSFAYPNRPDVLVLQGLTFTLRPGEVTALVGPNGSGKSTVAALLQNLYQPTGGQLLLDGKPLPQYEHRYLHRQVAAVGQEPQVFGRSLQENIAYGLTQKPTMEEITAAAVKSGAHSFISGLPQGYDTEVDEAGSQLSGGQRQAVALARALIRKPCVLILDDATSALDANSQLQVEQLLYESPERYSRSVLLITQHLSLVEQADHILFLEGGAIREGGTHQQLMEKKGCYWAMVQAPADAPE
T1 sequence (Q03519 whole entry, chain 2 of 2): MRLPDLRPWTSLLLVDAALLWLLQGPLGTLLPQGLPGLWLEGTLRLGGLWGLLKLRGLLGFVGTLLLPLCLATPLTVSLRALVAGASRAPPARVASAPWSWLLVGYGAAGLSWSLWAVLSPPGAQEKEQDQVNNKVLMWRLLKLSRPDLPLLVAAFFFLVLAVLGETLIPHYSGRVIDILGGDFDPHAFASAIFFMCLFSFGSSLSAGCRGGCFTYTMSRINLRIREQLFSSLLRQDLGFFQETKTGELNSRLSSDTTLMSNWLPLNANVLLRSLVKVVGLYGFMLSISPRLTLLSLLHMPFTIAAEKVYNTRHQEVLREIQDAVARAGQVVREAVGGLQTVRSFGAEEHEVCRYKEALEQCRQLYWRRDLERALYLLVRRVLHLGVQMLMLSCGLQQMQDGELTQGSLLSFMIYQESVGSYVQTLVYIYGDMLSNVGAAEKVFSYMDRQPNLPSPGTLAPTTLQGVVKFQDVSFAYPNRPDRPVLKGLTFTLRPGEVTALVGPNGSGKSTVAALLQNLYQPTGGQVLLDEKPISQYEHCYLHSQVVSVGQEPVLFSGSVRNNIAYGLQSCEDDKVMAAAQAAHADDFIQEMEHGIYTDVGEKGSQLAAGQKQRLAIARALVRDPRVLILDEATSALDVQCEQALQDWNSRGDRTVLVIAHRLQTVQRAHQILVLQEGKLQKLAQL

RRYSTEL [b27’’ peptide (7-mer)]
binding result [1]: binds

ILKEPVHGV [a2 peptide (9-mer presented by HLA-A2)]
binding result [2]: binds

RRYQKSTEL [b27 peptide (9-mer presented by HLA-B27)]
binding result [2]: binds
